Source: the Human Domainome abundance scans (Beltran et al. 2025)
± gives the uncertainty stated by the source.

B1: RNA-binding E3 ubiquitin-protein ligase MEX3C, residues 325 to 391; numbered along this chain, Q5U5Q3 (parent)
chain: GQTTVQVRVPYRVVGLVVGPKGATIKRIQQQTHTYIVTPSRDKEPVFEVTGMPENVDRAREEIEMHI

Variants of: B1
Assay: abundance fitness (aPCA) (normalised: wild type 0, dead -1); higher = more abundant; growth selection in yeast, the domain comes from the species named
Settings: Homo sapiens

In order of falling abundance fitness:
1. GQTTVQVRVPYRVVGLVVGPKGATIKRIQQQTHTYIVTPSRDKEPVFEVTGMPENVDRARAEIEMHI [E61A]  0.014 ± 0.073
2. GQTTVQVRVPYRVVGLVVGPKGATIKRIQQQTHTYIVTPSRDKEPVFEVTGMPENVDRAVEEIEMHI [R60V]  -0.006 ± 0.056
3. GQTTVQVRVPYRVVGLVVGPKGATIKRIQQQTHTYIVTPSRDKEPVFEVTGMPENVDRAKEEIEMHI [R60K]  -0.024 ± 0.092
4. GQTTVQVRVPYRVVGLVVGPKGATIKRIQQQTHTYIVTPSRDKEPVFEVTGMPENVDRACEEIEMHI [R60C]  -0.025 ± 0.082
5. GQTTVQVRVPYRVVGLVVGPKGATIKRIQQQTHTYIVTPSRDKEPVFEVTGMPENVDRAIEEIEMHI [R60I]  -0.026 ± 0.12
6. GQTTVQVRVPYRVVGLVVGPKGATIKRIQQQTHTYIVTPSRDKEPVFEVTGMPENVDRARDEIEMHI [E61D]  -0.043 ± 0.083
7. GQTTVQVRVPYRVVGLVVGPKGATIKRIQQQTHTYIVTPSRDKEPVFEVTGMPENVDRALEEIEMHI [R60L]  -0.098 ± 0.057
8. GQTTVQVRVPYRVVGLVVGPKGATIKRIQQQTHTYIVTPSRDKEPVFEVTGMPENVDRAMEEIEMHI [R60M]  -0.296 ± 0.12
9. GQTTVQVRVPYRVVGLVVGPKGATIKRIQQQTHTYIVTPSRDKEPVFEVTGMPENVDQAREEIEMHI [R58Q]  -0.304 ± 0.11
10. GQTTVQVRVPYRVVGLVVGPKGATIKRIQQQTHTYIVTPSRDKEPVFEVTGMPENVDRMREEIEMHI [A59M]  -0.313 ± 0.14
11. GQTTVQVRVPYRVVGLVVGPKGATIKRIQQQTHTYIVTPSRDKEPVFEVTGMPENVDRARFEIEMHI [E61F]  -0.342 ± 0.1
12. GQTTVQVRVPYRVVGLVVGPKGATIKRIQQQTHTYIVTPSRDKEPVFEVTGMPENVDRCREEIEMHI [A59C]  -0.374 ± 0.11
13. GQTTVQVRVPYRVVGLVVGPKGATIKRIQQQTHTYIVTPSRDKEPVFEVTGMPENVDRAHEEIEMHI [R60H]  -0.401 ± 0.17
14. GQTTVQVRVPYRVVGLVVGPKGATIKRIQQQTHTYIVTPSRDKEPVFEVTGMPENVDRAFEEIEMHI [R60F]  -0.526 ± 0.24
15. GQTTVQVRVPYRVVGLVVGPKGATIKRIQQQTHTYIVTPSRDKEPVFEVTGMPENVDRAWEEIEMHI [R60W]  -0.53 ± 0.14
16. GQTTVQVRVPYRVVGLVVGPKGATIKRIQQQTHTYIVTPSRDKEPVFEVTGMPENVDWAREEIEMHI [R58W]  -0.555 ± 0.1
17. GQTTVQVRVPYRVVGLVVGPKGATIKRIQQQTHTYIVTPSRDKEPVFEVTGMPENVDRATEEIEMHI [R60T]  -0.557 ± 0.11
18. GQTTVQVRVPYRVVGLVVGPKGATIKRIQQQTHTYIVTPSRDKEPVFEVTGMPENVDRAGEEIEMHI [R60G]  -0.575 ± 0.078
19. GQTTVQVRVPYRVVGLVVGPKGATIKRIQQQTHTYIVTPSRDKEPVFEVTGMPENVDSAREEIEMHI [R58S]  -0.614 ± 0.1
20. GQTTVQVRVPYRVVGLVVGPKGATIKRIQQQTHTYIVTPSRDKEPVFEVTGMPENVDVAREEIEMHI [R58V]  -0.616 ± 0.1
21. GQTTVQVRVPYRVVGLVVGPKGATIKRIQQQTHTYIVTPSRDKEPVFEVTGMPENVDRAQEEIEMHI [R60Q]  -0.639 ± 0.18
22. GQTTVQVRVPYRVVGLVVGPKGATIKRIQQQTHTYIVTPSRDKEPVFEVTGMPENVDRAPEEIEMHI [R60P]  -0.651 ± 0.14
23. GQTTVQVRVPYRVVGLVVGPKGATIKRIQQQTHTYIVTPSRDKEPVFEVTGMPENVDRKREEIEMHI [A59K]  -0.671 ± 0.12
24. GQTTVQVRVPYRVVGLVVGPKGATIKRIQQQTHTYIVTPSRDKEPVFEVTGMPENVDRAAEEIEMHI [R60A]  -0.694 ± 0.12
25. GQTTVQVRVPYRVVGLVVGPKGATIKRIQQQTHTYIVTPSRDKEPVFEVTGMPENVDRVREEIEMHI [A59V]  -0.719 ± 0.12
26. GQTTVQVRVPYRVVGLVVGPKGATIKRIQQQTHTYIVTPSRDKEPVFEVTGMPENVDRAEEEIEMHI [R60E]  -0.739 ± 0.26
27. GQTTVQVRVPYRVVGLVVGPKGATIKRIQQQTHTYIVTPSRDKEPVFEVTGMPENVDRRREEIEMHI [A59R]  -0.762 ± 0.13
28. GQTTVQVRVPYRVVGLVVGPKGATIKRIQQQTHTYIVTPSRDKEPVFEVTGMPENVDRQREEIEMHI [A59Q]  -0.802 ± 0.3
29. GQTTVQVRVPYRVVGLVVGPKGATIKRIQQQTHTYIVTPSRDKEPVFEVTGMPENVDRSREEIEMHI [A59S]  -0.829 ± 0.14
30. GQTTVQVRVPYRVVGLVVGPKGATIKRIQQQTHTYIVTPSRDKEPVFEVTGMPENVDRPREEIEMHI [A59P]  -0.854 ± 0.17
31. GQTTVQVRVPYRVVGLVVGPKGATIKRIQQQTHTYIVTPSRDKEPVFEVTGMPENVDRHREEIEMHI [A59H]  -0.859 ± 0.33
32. GQTTVQVRVPYRVVGLVVGPKGATIKRIQQQTHTYIVTPSRDKEPVFEVTGMPENVDRLREEIEMHI [A59L]  -0.886 ± 0.16
33. GQTTVQVRVPYRVVGLVVGPKGATIKRIQQQTHTYIVTPSRDKEPVFEVTGMPENVDRDREEIEMHI [A59D]  -0.915 ± 0.24
34. GQTTVQVRVPYRVVGLVVGPKGATIKRIQQQTHTYIVTPSRDKEPVFEVTGMPENVDRTREEIEMHI [A59T]  -0.929 ± 0.35
35. GQTTVQVRVPYRVVGLVVGPKGATIKRIQQQTHTYIVTPSRDKEPVFEVTGMPENVDREREEIEMHI [A59E]  -0.967 ± 0.24
36. GQTTVQVRVPYRVVGLVVGPKGATIKRIQQQTHTYIVTPSRDKEPVFEVTGMPENVDRIREEIEMHI [A59I]  -1.08 ± 0.34
37. GQTTVQVRVPYRVVGLVVGPKGATIKRIQQQTHTYIVTPSRDKEPVFEVTGMPENVDRWREEIEMHI [A59W]  -1.08 ± 0.33
38. GQTTVQVRVPYRVVGLVVGPKGATIKRIQQQTHTYIVTPSRDKEPVFEVTGMPENVDPAREEIEMHI [R58P]  -1.09 ± 0.23
39. GQTTVQVRVPYRVVGLVVGPKGATIKRIQQQTHTYIVTPSRDKEPVFEVTGMPENVDTAREEIEMHI [R58T]  -1.1 ± 0.33
40. GQTTVQVRVPYRVVGLVVGPKGATIKRIQQQTHTYIVTPSRDKEPVFEVTGMPENVDRADEEIEMHI [R60D]  -1.13 ± 0.45
